T1: TRα (UniProt P10827-2 P10827-2:1-410)
T1 sequence: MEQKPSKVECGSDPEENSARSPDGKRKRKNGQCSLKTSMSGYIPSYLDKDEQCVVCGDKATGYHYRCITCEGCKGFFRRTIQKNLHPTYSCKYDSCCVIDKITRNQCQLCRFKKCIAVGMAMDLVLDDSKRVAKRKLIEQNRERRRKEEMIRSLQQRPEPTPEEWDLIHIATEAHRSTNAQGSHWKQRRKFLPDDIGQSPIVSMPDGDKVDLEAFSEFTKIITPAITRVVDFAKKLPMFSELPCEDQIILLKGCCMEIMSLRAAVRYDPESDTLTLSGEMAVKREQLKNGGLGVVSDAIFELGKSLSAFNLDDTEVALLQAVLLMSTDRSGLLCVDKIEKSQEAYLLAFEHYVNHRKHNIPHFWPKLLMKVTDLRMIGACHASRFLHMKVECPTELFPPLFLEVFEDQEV

B1: ERE palindrome (dsDNA)
DNA 1: GATCTCAGGTCACTGTGACCTGAGATC
DNA 2: GATCTCAGGTCACAGTGACCTGAGATC
B2: TRE/OP (inverted repeat, 4 bp spacer) (dsDNA)
DNA 1: GATCCTGACCTGAGATCTCAGGTCAGGATC
DNA 2: B2 DNA 1
B3: βRARE (dsDNA)
DNA 1: GATCAGGGTTCAGGCAAAGTTCACGATC
DNA 2: GATCGTGAACTTTGCCTGAACCCTGATC
B4: TRE/half (dsDNA)
DNA 1: GATCTCAGGTCAGATC
DNA 2: GATCTGACCTGAGATC

Experiments:
Settings in all cases: label: 32P
[1] = target: T2, TRα/RXRα heterodimer (UniProt P10827-2;P19793 P10827-2:1-410,P19793:1-462); test: EMSA; TRα binding abolished by RXRα
Method: (§1) In vitro translated receptor protein (1 to 5 μl depending on the translation efficiency) was incubated with the ^32P-labeled oligonucleotides in a 20-μl reaction mixture containing 10 mM hepes buffer, pH 7.9, 50 mM KCl, 1 mM DTT, 2.5 mM MgCl, 10% glycerol, and 1 μg of poly(dI-dC) at 25° C. for 20 minutes. In general, relative low receptor concentration was used to obtain the clear effect of heterodimer formation. The reaction mixture was then loaded on a 5% nondenaturing ployacrylamide gel containing 0.5×TBE (1×TBE=0.089 M Tris-borate, 0.089 M boric acid, and 0.002 M EDTA). To analyze the effect of RXRα or the nuclear proteins on receptor DNA binding activity, RXRα or the cell extracts were preincubated with receptor protein at room temperature for 10 minutes before performing the DNA binding assay. When antibody was used, 1 μl of the antiserum was incubated with the specific translation products at room temperature for 45 minutes before performing the experiments described above.

[2] = target: T1, TRα; test: EMSA
Method: as §1

[3] = target: RXRα (Homo sapiens, UniProt P19793 P19793:1-462); test: EMSA; at concentration used
Method: (§2) (b) Gel retardation analysis of RXRα-TRα interaction using different DNA response elements. Gel retardation assays were carried out essentially as described in FIG. 1a but using different response elements. (−) represents the binding of unprogrammed reticulocyte lysate.
as §1

[4] = target: T2, TRα/RXRα heterodimer; test: EMSA; strongly enhanced and upshifted versus TRα alone
Method: as §1

[5] = target: T1, TRα; test: EMSA; one complex
Method: as §1

[6] = target: T2, TRα/RXRα heterodimer; test: EMSA; strong binding
Method: as §1

[7] = target: T1, TRα; test: EMSA; no visible binding
Method: as §2, §1

[8] = target: T1, TRα; test: EMSA; about as efficient as palindromic TRE
Method: as §1

T2 sequence (P19793 whole entry, one chain of several): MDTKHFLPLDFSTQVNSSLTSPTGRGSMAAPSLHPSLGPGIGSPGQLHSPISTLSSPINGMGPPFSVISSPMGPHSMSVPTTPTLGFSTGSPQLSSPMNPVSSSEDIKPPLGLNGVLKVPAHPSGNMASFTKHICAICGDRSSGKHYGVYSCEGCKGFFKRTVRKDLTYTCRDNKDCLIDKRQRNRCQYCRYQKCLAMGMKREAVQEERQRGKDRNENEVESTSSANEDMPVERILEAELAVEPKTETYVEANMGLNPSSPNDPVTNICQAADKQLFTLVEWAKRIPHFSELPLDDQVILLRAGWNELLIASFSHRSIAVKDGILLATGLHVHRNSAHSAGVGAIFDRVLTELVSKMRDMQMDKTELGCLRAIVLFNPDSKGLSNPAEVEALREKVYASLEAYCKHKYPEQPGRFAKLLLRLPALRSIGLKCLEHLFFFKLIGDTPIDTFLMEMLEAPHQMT
RXRα, sequence (P19793 whole entry, one chain of several): as above

| Binder | binding result [1] | binding result [2] | binding result [3] | binding result [4] | binding result [5] | binding result [6] | binding result [7] | binding result [8] |
| --- | --- | --- | --- | --- | --- | --- | --- | --- |
| B1 | no binding | binds | no binding |  |  |  |  |  |
| B2 |  |  | no binding | binds | binds |  |  |  |
| B3 |  |  | no binding |  |  | binds | no binding |  |
| B4 | no binding |  | no binding |  |  |  |  | binds |

Source: patent publication US7026125, “Heterodimers of retinoid X receptors (RXRS) and other steroid hormone receptors” (Ligand Pharmaceuticals)
